This experiment has as its target human EphA2 (human) (UniProt P29317). Put plainly: cell-based or functional assay.

B1: EphA2-BiTE EA2 (VL/VH) × deimmunized anti-CD3 (VH/VL) (bispecific antibody, part only; not given: anti-CD3 scFv, part only)
chain, part: DIKMTQSPSSMYASLGERVTITCKASQDINNYLSWFQQKPGKSPKTLIYRANRLVDGVPSRFSGSGSGQDYSLTISSLEYEDMGIYYCLKYDEFPYTFGGGTKLEIKGGGGSGGGGSGGGGSDVKLVESGGGLVKPGGSLKLSCAASGFTFSSYTMSWVRQTPEKRLEWVATISSGGTYTYYPDSVKGRFTISRDNAKNTLYLQMSSLKSEDTAMYYCTREAIFTYWGQGTLVTVSAGGGGSHHHHHH
For B1, the EC50 of redirected lysis, 51Cr release, A549, NK-depleted PBMC, E:T 10:1, 18 h stood at 0.17 µg/mL; the EC50 of redirected lysis, 51Cr release, MDA MB231, NK-depleted PBMC, E:T 10:1, 18 h is 0.0538 µg/mL; the EC50 of redirected lysis, 51Cr release, MDA MB231, second experiment is 0.086 µg/mL.

B2: EphA2-BiTE EA2 (VH/VL) × deimmunized anti-CD3 (VH/VL) (bispecific antibody, part only; not given: anti-CD3 scFv, part only)
chain, part: DVKLVESGGGLVKPGGSLKLSCAASGFTFSSYTMSWVRQTPEKRLEWVATISSGGTYTYYPDSVKGRFTISRDNAKNTLYLQMSSLKSEDTAMYYCTREAIFTYWGQGTLVTVSAGGGGSGGGGSGGGGSDIKMTQSPSSMYASLGERVTITCKASQDINNYLSWFQQKPGKSPKTLIYRANRLVDGVPSRFSGSGSGQDYSLTISSLEYEDMGIYYCLKYDEFPYTFGGGTKLEIKGGGGSHHHHHH
Molecule B2 returned an EC50 of redirected lysis, 51Cr release, A549 of 0.184 µg/mL; an EC50 of redirected lysis, 51Cr release, A549, second experiment of 0.163 µg/mL; an EC50 of redirected lysis, 51Cr release, MDA MB231 of 0.0559 µg/mL; an EC50 of redirected lysis, 51Cr release, MDA MB231, second experiment of 0.0721 µg/mL.

(Values after patent US20080044413A1.)
